Assay results published in patent US20160200791A1 (Novo Nordisk, published 2016).
Numbered stars: 1 amine (or outer) side, 2 acyl side, 3 side chain; on linkers, the order of the positions; unused ones are H or OH. Square brackets hold non-standard residues; d marks the D form. Side chains are listed from the residue outwards. Ends that are not written are not given here. * marks the point of attachment. Hexadecanoyl(16-SO3H) = O=C(CCCCCCCCCCCCCCCS(=O)(=O)O)*; C20 diacid = O=C(O)CCCCCCCCCCCCCCCCCCC(=O)*; C18 diacid = O=C(O)CCCCCCCCCCCCCCCCC(=O)*; γGlu = O=C(O)[C@H](CCC(=O)[*:2])N[*:1]; εLys = N[C@@H](CCCCN[*:1])C(=O)[*:2]; Cya = N[C@@H](CS(=O)(=O)O)C(=O)O; Trx = NC[C@H]1CC[C@H](C(=O)O)CC1; AEEA = NCCOCCOCC(=O)O; Aib = CC(C)(N)C(=O)O; Ahx = NCCCCCC(=O)O; GABA = NCCCC(=O)O

Legend:
human GLP-1 receptor [1] = biological target: T1, human GLP-1 receptor (human, UniProt P43220 24-463); assay: competitive SPA binding, displacement of 125I-GLP-1(7-36)NH2 from BHK membranes with human GLP-1R, high HSA (2.0%)
T1 construct: whole, on cells
Description: (§1) For the receptor binding assay in the presence of low HSA (0.005%) 50 μl of the assay buffer was added to each well of an assay plate. Assay continued with step 3. […] For the receptor binding assay in the presence of high HSA (2%) 50 μl of the 8% albumin stock was added to each well of an assay plate. Assay continued with step 3. […] Cell membrane aliquots were thawed and diluted to their working concentration. Fifty μl were added to each well in the assay plate. […] WGA SPA beads were suspended in assay buffer at 20 mg/ml. The suspension was diluted to 10 mg/ml in assay buffer just prior to addition to the assay plate. Fifty μl were added to each well in the assay plate. […] A 25 μl aliquot was reserved for measuring total counts/well. […] The assay plate was incubated for 2 h at 30° C. […] The assay plate was centrifuged for 10 min. […] The assay plate was read in a Packard TopCount NXT instrument.

human GLP-1 receptor [2] = biological target: T1, human GLP-1 receptor; assay: competitive SPA binding, displacement of 125I-GLP-1(7-36)NH2 from BHK membranes with human GLP-1R, low HSA (max. 0.001%)
Description: as §1

human GLP-1 receptor [3] = biological target: T1, human GLP-1 receptor; assay: cell-based or functional assay

## H[Aib]EGTFTSDVSK([AEEA-AEEA-AEEA-AEEA-AEEA-εLys-εLys-Ahx-Hexadecanoyl(16-SO3H)])YLEK([AEEA-AEEA-AEEA-AEEA-AEEA-εLys-εLys-Ahx-Hexadecanoyl(16-SO3H)])QAAREFIK([AEEA-AEEA-AEEA-AEEA-AEEA-εLys-εLys-Ahx-Hexadecanoyl(16-SO3H)])WLVRGRG (Full chemical name printed at h-0090)
Human GLP-1 receptor [1]
  IC50: 100 nM
Human GLP-1 receptor [2]
  IC50: 0.36 nM
Human GLP-1 receptor [3]
  In vitro potency EC50 (CRE luciferase reporter gene assay, BHK cells): 27 pM

## H[Aib]EGTFTSDVSK([AEEA-AEEA-εLys-εLys-Hexadecanoyl(16-SO3H)])YLEK([AEEA-AEEA-εLys-εLys-Hexadecanoyl(16-SO3H)])QAAREFIK([AEEA-AEEA-εLys-εLys-Hexadecanoyl(16-SO3H)])WLVRGRG (Full chemical name printed at h-0078)
Human GLP-1 receptor [1]
  IC50: 100 nM
Human GLP-1 receptor [2]
  IC50: 0.19 nM
Human GLP-1 receptor [3]
  In vitro potency EC50 (CRE luciferase reporter gene assay, BHK cells): 18 pM

B1: GLP-1 derivative of Example 6: N{Epsilon-18}, N{Epsilon-27}, N{Epsilon-37}-triacylated [Aib8,Lys18,Glu22,Arg26,Lys27,Arg34,Lys37]-GLP-1-(7-37)-peptide (peptide)
peptide: H[Aib]EGTFTSDVSK([εLys-AEEA-AEEA-γGlu-C18 diacid])YLEEQAARK([εLys-AEEA-AEEA-γGlu-C18 diacid])FIAWLVRGRK([εLys-AEEA-AEEA-γGlu-C18 diacid])
notes: Full chemical name printed at h-0062 (it prints 'Lys8' where Lys18 is meant)
Human GLP-1 receptor [1]
  IC50: > 1000 nM
Human GLP-1 receptor [2]
  IC50: 0.4 nM
Human GLP-1 receptor [3]
  In vitro potency EC50 (CRE luciferase reporter gene assay, BHK cells): 12 pM

## H[Aib]EGTFTSDVSK([AEEA-AEEA-γGlu-Trx-Hexadecanoyl(16-SO3H)])YLEK([AEEA-AEEA-γGlu-Trx-Hexadecanoyl(16-SO3H)])QAAREFIK([AEEA-AEEA-γGlu-Trx-Hexadecanoyl(16-SO3H)])WLVRGRG (Full chemical name printed at h-0052)
Human GLP-1 receptor [1]
  IC50: 289 nM
Human GLP-1 receptor [2]
  IC50: 2.3 nM
Human GLP-1 receptor [3]
  In vitro potency EC50 (CRE luciferase reporter gene assay, BHK cells): 67 pM

## H[Aib]EGTFTSDVSK([AEEA-AEEA-AEEA-AEEA-εLys-εLys-GABA-Hexadecanoyl(16-SO3H)])YLEK([AEEA-AEEA-AEEA-AEEA-εLys-εLys-GABA-Hexadecanoyl(16-SO3H)])QAAREFIK([AEEA-AEEA-AEEA-AEEA-εLys-εLys-GABA-Hexadecanoyl(16-SO3H)])WLVRGRG (Full chemical name printed at h-0086)
Human GLP-1 receptor [1]
  IC50: 19 nM
Human GLP-1 receptor [2]
  IC50: 0.1 nM
Human GLP-1 receptor [3]
  In vitro potency EC50 (CRE luciferase reporter gene assay, BHK cells): 116 pM

## H[Aib]EGTFTSDVSK([AEEA-AEEA-γGlu-C18 diacid])YLEEQAARK([AEEA-AEEA-γGlu-C18 diacid])FIAWLVRGRK([AEEA-AEEA-γGlu-C18 diacid]) (Full chemical name printed at h-0060)
Human GLP-1 receptor [1]
  IC50: > 1000 nM
Human GLP-1 receptor [2]
  IC50: 0.6 nM
Human GLP-1 receptor [3]
  In vitro potency EC50 (CRE luciferase reporter gene assay, BHK cells): 40 pM

## H[Aib]EGTFTSDVSSYLEEQAAK([εLys-AEEA-AEEA-γGlu-C18 diacid])EFIK([εLys-AEEA-AEEA-γGlu-C18 diacid])WLVRGRK([εLys-AEEA-AEEA-γGlu-C18 diacid]) (Full chemical name printed at h-0072)
Human GLP-1 receptor [1]
  IC50: > 1000 nM
Human GLP-1 receptor [2]
  IC50: 8.7 nM
Human GLP-1 receptor [3]
  In vitro potency EC50 (CRE luciferase reporter gene assay, BHK cells): 85 pM

## H[Aib]EGTFTSDVSSYLEEQAAK([εLys-AEEA-AEEA-Cya-Hexadecanoyl(16-SO3H)])EFIK([εLys-AEEA-AEEA-Cya-Hexadecanoyl(16-SO3H)])WLVRGRK([εLys-AEEA-AEEA-Cya-Hexadecanoyl(16-SO3H)]) (Full chemical name printed at h-0074)
Human GLP-1 receptor [1]
  IC50: 214 nM
Human GLP-1 receptor [2]
  IC50: 5 nM
Human GLP-1 receptor [3]
  In vitro potency EC50 (CRE luciferase reporter gene assay, BHK cells): 99 pM

## H[Aib]EGTFTSDVSK([Ser-Ser-Ser-Ser-Ser-Ser-γGlu-C18 diacid])YLEGQAARK([Ser-Ser-Ser-Ser-Ser-Ser-γGlu-C18 diacid])FIAWLVRGRK([Ser-Ser-Ser-Ser-Ser-Ser-γGlu-C18 diacid]) (Full chemical name printed at h-0068)
Human GLP-1 receptor [1]
  IC50: > 1000 nM
Human GLP-1 receptor [3]
  In vitro potency EC50 (CRE luciferase reporter gene assay, BHK cells): 67 pM

## H[Aib]EGTFTSDVSSYLEEQAARK([AEEA-AEEA-γGlu-C18 diacid])FIK([AEEA-AEEA-γGlu-C18 diacid])WLVRGRK([AEEA-AEEA-γGlu-C18 diacid]) (Full chemical name printed at h-0070)
Human GLP-1 receptor [1]
  IC50: 188 nM
Human GLP-1 receptor [2]
  IC50: 0.82 nM
Human GLP-1 receptor [3]
  In vitro potency EC50 (CRE luciferase reporter gene assay, BHK cells): 26 pM

## H[Aib]EGTFTSDVSK([AEEA-AEEA-AEEA-AEEA-AEEA-εLys-εLys-GABA-Hexadecanoyl(16-SO3H)])YLEK([AEEA-AEEA-AEEA-AEEA-AEEA-εLys-εLys-GABA-Hexadecanoyl(16-SO3H)])QAAREFIK([AEEA-AEEA-AEEA-AEEA-AEEA-εLys-εLys-GABA-Hexadecanoyl(16-SO3H)])WLVRGRG (Full chemical name printed at h-0092)
Human GLP-1 receptor [1]
  IC50: 96 nM
Human GLP-1 receptor [2]
  IC50: 0.24 nM
Human GLP-1 receptor [3]
  In vitro potency EC50 (CRE luciferase reporter gene assay, BHK cells): 15 pM

## H[Aib]EGTFTSDVSK([AEEA-AEEA-AEEA-AEEA-AEEA-εLys-εLys-C18 diacid])YLEK([AEEA-AEEA-AEEA-AEEA-AEEA-εLys-εLys-C18 diacid])QAAREFIK([AEEA-AEEA-AEEA-AEEA-AEEA-εLys-εLys-C18 diacid])WLVRGRG (Full chemical name printed at h-0082)
Human GLP-1 receptor [1]
  IC50: 381 nM
Human GLP-1 receptor [2]
  IC50: 0.4 nM
Human GLP-1 receptor [3]
  In vitro potency EC50 (CRE luciferase reporter gene assay, BHK cells): 14 pM

## H[Aib]EGTFTSDVSK([AEEA-AEEA-AEEA-AEEA-AEEA-εLys-εLys-εLys-C18 diacid])YLEK([AEEA-AEEA-AEEA-AEEA-AEEA-εLys-εLys-εLys-C18 diacid])QAAREFIK([AEEA-AEEA-AEEA-AEEA-AEEA-εLys-εLys-εLys-C18 diacid])WLVRGRG (Full chemical name printed at h-0084)
Human GLP-1 receptor [1]
  IC50: 143 nM
Human GLP-1 receptor [2]
  IC50: 0.08 nM
Human GLP-1 receptor [3]
  In vitro potency EC50 (CRE luciferase reporter gene assay, BHK cells): 18 pM

B2: GLP-1 derivative of Example 4: N{Epsilon-18}, N{Epsilon-22}, N{Epsilon-30}-triacylated [Aib8,Lys18,Lys22,Arg26,Lys30,Arg34]-GLP-1-(7-37)-peptide (peptide)
peptide: H[Aib]EGTFTSDVSK([AEEA-AEEA-Cya-Trx-Hexadecanoyl(16-SO3H)])YLEK([AEEA-AEEA-Cya-Trx-Hexadecanoyl(16-SO3H)])QAAREFIK([AEEA-AEEA-Cya-Trx-Hexadecanoyl(16-SO3H)])WLVRGRG
notes: Full chemical name printed at h-0058 (it prints 'Lys8' where Lys18 is meant)
Human GLP-1 receptor [1]
  IC50: 351 nM
Human GLP-1 receptor [2]
  IC50: 1.6 nM
Human GLP-1 receptor [3]
  In vitro potency EC50 (CRE luciferase reporter gene assay, BHK cells): 14 pM

## H[Aib]EGTFTSDVSK([AEEA-AEEA-εLys-Hexadecanoyl(16-SO3H)])YLEK([AEEA-AEEA-εLys-Hexadecanoyl(16-SO3H)])QAAREFIK([AEEA-AEEA-εLys-Hexadecanoyl(16-SO3H)])WLVRGRG (Full chemical name printed at h-0076)
Human GLP-1 receptor [1]
  IC50: 84 nM
Human GLP-1 receptor [2]
  IC50: 0.23 nM
Human GLP-1 receptor [3]
  In vitro potency EC50 (CRE luciferase reporter gene assay, BHK cells): 26 pM

## H[Aib]EGTFTSDVSK([AEEA-γGlu-AEEA-C18 diacid])YLEEQAARK([AEEA-γGlu-AEEA-C18 diacid])FIAWLVRGRK([AEEA-γGlu-AEEA-C18 diacid]) (Full chemical name printed at h-0064)
Human GLP-1 receptor [1]
  IC50: > 1000 nM
Human GLP-1 receptor [2]
  IC50: 0.7 nM
Human GLP-1 receptor [3]
  In vitro potency EC50 (CRE luciferase reporter gene assay, BHK cells): 76 pM

## H[Aib]EGTFTSDVSK([AEEA-AEEA-AEEA-AEEA-AEEA-εLys-εLys-C20 diacid])YLEK([AEEA-AEEA-AEEA-AEEA-AEEA-εLys-εLys-C20 diacid])QAAREFIK([AEEA-AEEA-AEEA-AEEA-AEEA-εLys-εLys-C20 diacid])WLVRGRG (Full chemical name printed at h-0080)
Human GLP-1 receptor [1]
  IC50: 426 nM
Human GLP-1 receptor [2]
  IC50: 11 nM
Human GLP-1 receptor [3]
  In vitro potency EC50 (CRE luciferase reporter gene assay, BHK cells): 82 pM

## H[Aib]EGTFTSDVSK([AEEA-AEEA-Cya-Hexadecanoyl(16-SO3H)])YLEK([AEEA-AEEA-Cya-Hexadecanoyl(16-SO3H)])QAAREFIK([AEEA-AEEA-Cya-Hexadecanoyl(16-SO3H)])WLVRGRG (Full chemical name printed at h-0054)
Human GLP-1 receptor [1]
  IC50: 290 nM
Human GLP-1 receptor [2]
  IC50: 1.4 nM
Human GLP-1 receptor [3]
  In vitro potency EC50 (CRE luciferase reporter gene assay, BHK cells): 20 pM

B3: GLP-1 derivative of Example 19: N{Epsilon-18}, N{Epsilon-22}, N{Epsilon-30}-triacylated [Aib8,Lys18,Lys22,Arg26,Lys30,Arg34]-GLP-1-(7-37)-peptide (peptide)
peptide: H[Aib]EGTFTSDVSK([AEEA-AEEA-AEEA-AEEA-εLys-εLys-Ahx-Hexadecanoyl(16-SO3H)])YLEK([AEEA-AEEA-AEEA-AEEA-εLys-εLys-Ahx-Hexadecanoyl(16-SO3H)])QAAREFIK([AEEA-AEEA-AEEA-AEEA-εLys-εLys-Ahx-Hexadecanoyl(16-SO3H)])WLVRGRG
notes: Full chemical name printed at h-0088; the printed name is uneven in the number of OEG units for the side chains at 18 and 22 (four opened, three closed)
Human GLP-1 receptor [1]
  IC50: 49 nM
Human GLP-1 receptor [2]
  IC50: 0.15 nM
Human GLP-1 receptor [3]
  In vitro potency EC50 (CRE luciferase reporter gene assay, BHK cells): 19 pM
